# Target: T1, Feline FcRn (complex of FcRn-α subunit and β-microglobulin, C-terminal His tag) (feline, UniProt A0ABI7ZNY9 23-296; Q5MGS7 21-118)
# T1 construct: treated here as one molecule
# Experiment: SPR Biacore, FcRn amine-coupled on CM5, pH 6
# Description: (§1) Feline FcRn was isolated, prepared and mutant Fc IgGs were assayed against feline FcRn according to Strietzelg et. al. Standard RACE PCR was used to amplify feline FcRn-α subunit and β-microglobulin. FcRn-α subunit and β-microglobulin were co-transfected into HEK 293 cells and the FcRn complex was purified by IMAC affinity purification via the c-terminal His tag. KD's were measured by Biacore 3000 or Biacore T200 (GE Healthcare, Pittsburgh, PA, USA) using a CM5 sensor chip.
# (§2) FcRn was immobilized on the surface of the sensor using the standard amine immobilization method to reach the desired surface density. HBS-EP was used as the immobilization running buffer and 10 mM MES; 150 mM NaCl; 0.005% Tween20; 0.5 mg/mL BSA; pH6 and pH7.2 and PBS; 0.005% Tween20; 0.5 mg/mL BSA; pH7.4 were used for method running buffers and titrations. Fc mutant IgGs were flowed over receptor surfaces and affinity was determined using Scrubber2 software analysis (BioLogic Software Pty, Ltd., Campbell, Australia) or T200 evaluation software (Table 2). Blank runs containing buffer only were subtracted out from all runs. Flow cells were regenerated using 50 mM Tris pH8. Runs were performed at 15° C.
row,Kd,Binder
1,9.58 nM,"Anti-NGF antibody of Table 3, S434G (antibody) heavy: DVQLVESGGDLVKPGGSLRLTCVASGFTYSNYWMHWVRQAPGKGLQWVARIDPYGGGTKHNEKFKRRFTISRDNAKNTLYLQMNSLKTEDTATYYCVRSGYDYYFDVWGQGTLVTVSSASTTAPSVFPLAPSCGTTSGATVALACLVLGYFPEPVTVSWNSGALTSGVHTFPAVLQASGLYSLSSMVTVPSSRWLSDTFTCNVAHPPSNTKVDKTVRKTDHPPGPKPCDCPKCPPPEMLGGPSIFIFPPKPKDTLSISRTPEVTCLVVDLGPDDSDVQITWFVDNTQVYTAKTSPREEQFNSTYRVVSVLPILHQDWLKGKEFKCKVNSKSLPSPIERTISKAKGQPHEPQVYVLPPAQEELSRNKVSVTCLIKSFHPPDIAVEWEITGQPEPENNYRTTPPQLDSDGTYFVYSKLSVDRSHWQRGNTYTCSVSHEALHGHHTQKSLTQSPGK light: EIQMTQSPSSLSASPGDRVTITCRASENIYSFLAWYQQKPGKVPKLLIYNANTLAEGVPSRFSGSGSGTDFTLTISSLEPEDAATYYCQHHFGTPFTFGSGTKLEIKRSDAQPSVFLFQPSLDELHTGSASIVCILNDFYPKEVNVKWKVDGVVQNKGIQESTTEQNSKDSTYSLSSTLTMSSTEYQSHEKFSCEVTHKSLASTLVKSFQRSECQRE"

# Target: T1, Feline FcRn (complex of FcRn-α subunit …)
# Experiment: SPR Biacore, FcRn amine-coupled on CM5, pH 7.2
# Description: as §1, §2
row,Kd,Binder
1,21.6 nM,"Anti-NGF antibody of Table 3, S434G (antibody) heavy: DVQLVESGGDLVKPGGSLRLTCVASGFTYSNYWMHWVRQAPGKGLQWVARIDPYGGGTKHNEKFKRRFTISRDNAKNTLYLQMNSLKTEDTATYYCVRSGYDYYFDVWGQGTLVTVSSASTTAPSVFPLAPSCGTTSGATVALACLVLGYFPEPVTVSWNSGALTSGVHTFPAVLQASGLYSLSSMVTVPSSRWLSDTFTCNVAHPPSNTKVDKTVRKTDHPPGPKPCDCPKCPPPEMLGGPSIFIFPPKPKDTLSISRTPEVTCLVVDLGPDDSDVQITWFVDNTQVYTAKTSPREEQFNSTYRVVSVLPILHQDWLKGKEFKCKVNSKSLPSPIERTISKAKGQPHEPQVYVLPPAQEELSRNKVSVTCLIKSFHPPDIAVEWEITGQPEPENNYRTTPPQLDSDGTYFVYSKLSVDRSHWQRGNTYTCSVSHEALHGHHTQKSLTQSPGK light: EIQMTQSPSSLSASPGDRVTITCRASENIYSFLAWYQQKPGKVPKLLIYNANTLAEGVPSRFSGSGSGTDFTLTISSLEPEDAATYYCQHHFGTPFTFGSGTKLEIKRSDAQPSVFLFQPSLDELHTGSASIVCILNDFYPKEVNVKWKVDGVVQNKGIQESTTEQNSKDSTYSLSSTLTMSSTEYQSHEKFSCEVTHKSLASTLVKSFQRSECQRE"

# Target: T1, Feline FcRn (complex of FcRn-α subunit …)
# Experiment: SPR Biacore, FcRn on sensor, pH 6; pH 6
# Description: as §1, with “As discussed in the above Example section, Feline” for “Feline”
# FcRn was captured on the surface of the sensor using a modified SA capture method. 10 mM MES; 150 mM NaCl; 0.005% Tween20; 0.5 mg/mL BSA; pH6 was used as capture, method running buffer and titrations. 1×HBS-P, 0.5 mg/mL BSA; pH7.4 was also used for method running buffer and titrations. Fc mutant IgGs were flowed over receptor surfaces and affinity was determined using T200 evaluation software or Biacore Insight Evaluation software. Blank runs containing buffer only were subtracted out from all runs. Flow cells were regenerated using 50 mM Tris pH8 or pH9. Runs were performed at 15° C.
row,Binder,Kd
1,"mAb6 anti-TGFβ antibody ZTS-120-4, wildtype (antibody, also called mAb6 ID No. 18) heavy: QVLLVQSGADVRKPGASVKIFCKASGYTFSSNVMHWVRQTPAQGFEWMGSVIPIVDIATYARRFQGRLVLTADTSTNTAYMELRSLKSADTAVYYCARTLGLVLDAMDYWGQGSLVTVSSASTTAPSVFPLAPSCGTTSGATVALACLVLGYFPEPVTVSWNSGALTSGVHTFPAVLQASGLYSLSSMVTVPSSRWLSDTFTCNVAHPPSNTKVDKTVRKTDHPPGPKPCDCPKCPPPEMLGGPSIFIFPPKPKDTLSISRTPEVTCLVVDLGPDDSDVQITWFVDNTQVYTAKTSPREEQFNSTYRVVSVLPILHQDWLKGKEFKCKVNSKSLPSPIERTISKAKGQPHEPQVYVLPPAQEELSRNKVSVTCLIKSFHPPDIAVEWEITGQPEPENNYRTTPPQLDSDGTYFVYSKLSVDRSHWQRGNTYTCSVSHEALHSHHTQKSLTQSPGK light: EIQMTQSPSSLSASPGDRVTITCRASQSLGSSYLAWYQQKPGKVPKLLIYGASSRAPGVPSRFSGSGSGTDFTLTISSLEPEDAATYYCQQYADSPITFGQGTKLEIK",19.6 nM
2,"mAb6 anti-TGFβ antibody ZTS-120-6, wildtype (antibody, also called mAb6 ID No. 22) heavy: QVLLVQSGADVRKPGASVKIFCKASGYTFSSNVMHWVRQTPAQGFEWMGSVIPIVDIATYARRFQGRLVLTADTSTNTAYMELRSLKSADTAVYYCARTLGLVLDAMDYWGQGSLVTVSSASTTAPSVFPLAPSCGTTSGATVALACLVLGYFPEPVTVSWNSGALTSGVHTFPAVLQASGLYSLSSMVTVPSSRWLSDTFTCNVAHPPSNTKVDKTVRKTDHPPGPKPCDCPKCPPPEMLGGPSIFIFPPKPKDTLSISRTPEVTCLVVDLGPDDSDVQITWFVDNTQVYTAKTSPREEQFNSTYRVVSVLPILHQDWLKGKEFKCKVNSKSLPSPIERTISKAKGQPHEPQVYVLPPAQEELSRNKVSVTCLIKSFHPPDIAVEWEITGQPEPENNYRTTPPQLDSDGTYFVYSKLSVDRSHWQRGNTYTCSVSHEALHSHHTQKSLTQSPGK light: DIVLTQPPSLSVNLGQTARITCRASQSLGSSYLAWYQQKPGQAPKLVTYGASSRAPGIPDRFSGTNSGITATLTISGARAEDEADYYCQQYADSPITFGQGTKLEIK",14.3 nM
3,"mAb6 anti-TGFβ antibody ZTS-120-7, wildtype (antibody, also called mAb6 ID No. 24) heavy: DVQLVESGGDLVKPGGSLRLTCVASGYTFSSNVMHWVRQAPGKGLQWVAYVIPIVDIAYYADSVKGRFTISIDNSKNTLYLQMNSLKTEDTATYYCARTLGLVLDAMDYWGQGTLVTVSSASTTAPSVFPLAPSCGTTSGATVALACLVLGYFPEPVTVSWNSGALTSGVHTFPAVLQASGLYSLSSMVTVPSSRWLSDTFTCNVAHPPSNTKVDKTVRKTDHPPGPKPCDCPKCPPPEMLGGPSIFIFPPKPKDTLSISRTPEVTCLVVDLGPDDSDVQITWFVDNTQVYTAKTSPREEQFNSTYRVVSVLPILHQDWLKGKEFKCKVNSKSLPSPIERTISKAKGQPHEPQVYVLPPAQEELSRNKVSVTCLIKSFHPPDIAVEWEITGQPEPENNYRTTPPQLDSDGTYFVYSKLSVDRSHWQRGNTYTCSVSHEALHSHHTQKSLTQSPGK light: DIVLTQPPSLSVNLGQTARITCRASQSLGSSYLAWYQQKPGQAPKLVTYGASSRAPGIPDRFSGTNSGITATLTISGARAEDEADYYCQQYADSPITFGQGTKLEIK",30.2 nM
4,"mAb6 anti-TGFβ antibody ZTS-120-8, wildtype (antibody, also called mAb6 ID No. 26) heavy: QVLLVQSGADVRKPGASVKIFCKASGYTFTSNVISWVRQTPAQGFEWMGGVIPIVDIANYAQRFKGRLVLTADTSTNTAYMELRSLKSADTAVYYCASTLGLVLDAMDYWGQGSLVTVSSASTTAPSVFPLAPSCGTTSGATVALACLVLGYFPEPVTVSWNSGALTSGVHTFPAVLQASGLYSLSSMVTVPSSRWLSDTFTCNVAHPPSNTKVDKTVRKTDHPPGPKPCDCPKCPPPEMLGGPSIFIFPPKPKDTLSISRTPEVTCLVVDLGPDDSDVQITWFVDNTQVYTAKTSPREEQFNSTYRVVSVLPILHQDWLKGKEFKCKVNSKSLPSPIERTISKAKGQPHEPQVYVLPPAQEELSRNKVSVTCLIKSFHPPDIAVEWEITGQPEPENNYRTTPPQLDSDGTYFVYSKLSVDRSHWQRGNTYTCSVSHEALHSHHTQKSLTQSPGK light: DIVMTQSPGSLAGSPGQQVTMNCRASQSLGSSYLAWYQQKPGQHPELLIYGASSRAPGVPDRFSGSGSGTDFTLTISNLQAEDVANYYCQQYADSPITFGQGTKLEIK",35.7 nM
5,"mAb6 anti-TGFβ antibody ZTS-120-9, wildtype (antibody, also called mAb6 ID No. 28) heavy: DVQLVESGGDLVKPGGSLRLTCVASGYTFSSNVMHWVRQAPGKGLQWVAYVIPIVDIAYYADSVKGRFTISIDNSKNTLYLQMNSLKTEDTATYYCARTLGLVLDAMDYWGQGTLVTVSSASTTAPSVFPLAPSCGTTSGATVALACLVLGYFPEPVTVSWNSGALTSGVHTFPAVLQASGLYSLSSMVTVPSSRWLSDTFTCNVAHPPSNTKVDKTVRKTDHPPGPKPCDCPKCPPPEMLGGPSIFIFPPKPKDTLSISRTPEVTCLVVDLGPDDSDVQITWFVDNTQVYTAKTSPREEQFNSTYRVVSVLPILHQDWLKGKEFKCKVNSKSLPSPIERTISKAKGQPHEPQVYVLPPAQEELSRNKVSVTCLIKSFHPPDIAVEWEITGQPEPENNYRTTPPQLDSDGTYFVYSKLSVDRSHWQRGNTYTCSVSHEALHSHHTQKSLTQSPGK light: DIVMTQSPGSLAGSPGQQVTMNCRASQSLGSSYLAWYQQKPGQHPELLIYGASSRAPGVPDRFSGSGSGTDFTLTISNLQAEDVANYYCQQYADSPITFGQGTKLEIK",44.3 nM

# More lines, now with the values ahead:
row,Kd,Binder
1,20.5 nM,"mAb6 anti-TGFβ antibody ZTS-120-3, wildtype (antibody, also called mAb6 ID No. 16) heavy: QVLLVQSGAEVRTPGASVKIFCKASGYGFTSNVISWVRQSPAQGLEWMGGVIPIVDIANYAQRFKGRLTLTADTSTDTAYMELSSLRSADTAMYYCASTLGLVLDAMDYWGQGTLVTVSSASTTAPSVFPLAPSCGTTSGATVALACLVLGYFPEPVTVSWNSGALTSGVHTFPAVLQASGLYSLSSMVTVPSSRWLSDTFTCNVAHPPSNTKVDKTVRKTDHPPGPKPCDCPKCPPPEMLGGPSIFIFPPKPKDTLSISRTPEVTCLVVDLGPDDSDVQITWFVDNTQVYTAKTSPREEQFNSTYRVVSVLPILHQDWLKGKEFKCKVNSKSLPSPIERTISKAKGQPHEPQVYVLPPAQEELSRNKVSVTCLIKSFHPPDIAVEWEITGQPEPENNYRTTPPQLDSDGTYFVYSKLSVDRSHWQRGNTYTCSVSHEALHSHHTQKSLTQSPGK light: EIQMTQSPSSLSASPGDRVTITCRASQSLGSSYLAWYQQKPGKVPKLLIYGASSRAPGVPSRFSGSGSGTDFTLTISSLEPEDAATYYCQQYADSPITFGQGTKLEIK"
2,31.6 nM,"mAb6 anti-TGFβ antibody ZTS-120-5, wildtype (antibody, also called mAb6 ID No. 20) heavy: DVQLVESGGDLVKPGGSLRLTCVASGYTFSSNVMHWVRQAPGKGLQWVAYVIPIVDIAYYADSVKGRFTISIDNSKNTLYLQMNSLKTEDTATYYCARTLGLVLDAMDYWGQGTLVTVSSASTTAPSVFPLAPSCGTTSGATVALACLVLGYFPEPVTVSWNSGALTSGVHTFPAVLQASGLYSLSSMVTVPSSRWLSDTFTCNVAHPPSNTKVDKTVRKTDHPPGPKPCDCPKCPPPEMLGGPSIFIFPPKPKDTLSISRTPEVTCLVVDLGPDDSDVQITWFVDNTQVYTAKTSPREEQFNSTYRVVSVLPILHQDWLKGKEFKCKVNSKSLPSPIERTISKAKGQPHEPQVYVLPPAQEELSRNKVSVTCLIKSFHPPDIAVEWEITGQPEPENNYRTTPPQLDSDGTYFVYSKLSVDRSHWQRGNTYTCSVSHEALHSHHTQKSLTQSPGK light: EIQMTQSPSSLSASPGDRVTITCRASQSLGSSYLAWYQQKPGKVPKLLIYGASSRAPGVPSRFSGSGSGTDFTLTISSLEPEDAATYYCQQYADSPITFGQGTKLEIK"

# Source: patent publication US20260193335A1 (ZOETIS SERVICES, published 2026)
